Measured values as given in US20170182124A1, “FGF21 Derivatives and Uses Thereof” (Novo Nordisk A/S, priority 2014, published 2017).
Like-named read-outs stand apart in the source and are kept apart here.

Legend:
[1] = biological target: FGF receptor/BKL complex; assay: FGF receptor potency in an Erk phosphorylation assay in HEK293 overexpressing human BKL; format: cell-based; conditions: HEK293/BKL cells, pERK after 12 minutes
Summary of the method: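 pERK after 12 min analogue exposure at 37° C. was quantified by AlphaScreen SureFire in lysates of beta-klotho-transfected HEK293 cells. Assay medium was DMEM with 0.02% Tween20, run both without albumin and with 0.1% final HSA to probe albumin binding. Cells were starved 2 h in basal medium first. Absolute EC50 reported.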

[2] = biological target: 3T3-L1 adipocytes (Mus musculus, UniProt P16092+Q99N32); assay: Glucose uptake in 3T3-L1 adipocytes; format: cell-based; conditions: stimulated 20 hours, 3H-deoxy-glucose
Procedure: The C-terminal modified analogues were tested for their ability to increase glucose uptake in 3T3-L1 mouse adipocytes. The following assay was used for determining the biological activity, or potency, of FGF21 analogues and derivatives of the invention.
The in vitro potency may also be determined in an assay with mouse 3T3-L1 adipocytes by testing the FGF21 analogues and derivatives for their ability to increase glucose uptake into adipocytes. Differentiated 3T3-L1 adipocytes endogenously express FGFR1c and BKL. The 3T3-L1 cells are unresponsive to FGF21 until after differentiated as differentiation lead to expression of the co-receptor BKL. Activation of the FGFR1 receptor/BKL complex increase the expression of glucose transporter 1 (GLUT1) and therefore FGF21 agonists will lead to an increased amount of glucose taken into the adipocytes in a dose responsive manner.
Mouse 3T3-L1 fibroblasts (e.g. available from ATCC, catalogue no. CL-173) were maintained in basal medium (DMEM (4500 mg/I Glucose) with 10% Fetal Bovine Serum (FBS) and 1% Penicillin/Streptomycin). The cells are not allowed to reach confluence and should be passed (transferred to new vials) before reaching approx. 60% of confluency (by visual inspection).
For the glucose uptake assay, cells were 15.000 cells/well in a 96 well plate (BIOCOAT), and when they reached confluency (high density, with a view to have differentiated adipose cells made), the medium was changed from basal medium to basal medium containing Troglitazone, IBMX, Dexamethasone (commercially available from, e.g., Sigma) and human insulin (commercially available from, e.g., Novo Nordisk A/S).
The cells were used 7-9, days after initiation of differentiation. The cells were stimulated with increasing concentrations (0-300 nM) of the FGF21 analogues or derivatives of the invention for 20 hours in basal medium. Before addition of 3H-deoxy-glucose (in what follows: the tracer) the cells were washed in warm (approximately 37° C.) assay buffer (PBS with 1 mM MgCl2 and 2 mM CaCl2), HEPES and 0.1% Human serum albumin) and the cells were incubated with the tracer for 1 hour. This incubation was terminated by washing twice in ice cold assay buffer. The cells were lysed with Triton X-100 and lysates transferred to a 96 wells plate, microscint-40 (commercially available from, e.g., Perkin Elmer) was added and amount of tracer counted in a TOP-counter (e.g. a Packard top-counter from Perkin Elmer). The EC50 and Emax of the FGF21 compound in question were calculated. The results which are shown in tables 4-5 below indicate the EC50 (potency) and Emax (efficacy) of the FGF21 analogues and derivatives, respectively.

[3] = Pharmacokinetic study in mice (i.v.); conditions: terminal half-life, single intravenous dose of 20 mg/kg, lean C57bl mice
Procedure: This was done in a pharmacokinetic (PK) study, where the terminal half-life of the analogue in question was determined. By terminal half-life is meant the time it takes to halve a certain plasma concentration in the terminal elimination phase.
The pharmacokinetic profile of FGF21 analogues was tested in normal lean C57b1 mice, n =2-3 (approximately 30 grams). FGF21 compounds were dosed as a single intravenous dose of 20 mg/kg (approximately 5 ml/kg).
The plasma levels of the FGF21 compounds were determined using Fibroblast Growth Factor-21 Human ELISA (available from BioVendor, catalogue no. RD191108200R). The PC based software, WnNonLin version 6.3 from Pharsight Corportion, Cary N.C., was used for the pharmacokinetic calculation.

[4] = presence of 0.1% HSA, read-out: EC50 (0.1% HSA)

FGF receptor/BKL complex, sequence (Q86Z14 whole entry, one chain of several): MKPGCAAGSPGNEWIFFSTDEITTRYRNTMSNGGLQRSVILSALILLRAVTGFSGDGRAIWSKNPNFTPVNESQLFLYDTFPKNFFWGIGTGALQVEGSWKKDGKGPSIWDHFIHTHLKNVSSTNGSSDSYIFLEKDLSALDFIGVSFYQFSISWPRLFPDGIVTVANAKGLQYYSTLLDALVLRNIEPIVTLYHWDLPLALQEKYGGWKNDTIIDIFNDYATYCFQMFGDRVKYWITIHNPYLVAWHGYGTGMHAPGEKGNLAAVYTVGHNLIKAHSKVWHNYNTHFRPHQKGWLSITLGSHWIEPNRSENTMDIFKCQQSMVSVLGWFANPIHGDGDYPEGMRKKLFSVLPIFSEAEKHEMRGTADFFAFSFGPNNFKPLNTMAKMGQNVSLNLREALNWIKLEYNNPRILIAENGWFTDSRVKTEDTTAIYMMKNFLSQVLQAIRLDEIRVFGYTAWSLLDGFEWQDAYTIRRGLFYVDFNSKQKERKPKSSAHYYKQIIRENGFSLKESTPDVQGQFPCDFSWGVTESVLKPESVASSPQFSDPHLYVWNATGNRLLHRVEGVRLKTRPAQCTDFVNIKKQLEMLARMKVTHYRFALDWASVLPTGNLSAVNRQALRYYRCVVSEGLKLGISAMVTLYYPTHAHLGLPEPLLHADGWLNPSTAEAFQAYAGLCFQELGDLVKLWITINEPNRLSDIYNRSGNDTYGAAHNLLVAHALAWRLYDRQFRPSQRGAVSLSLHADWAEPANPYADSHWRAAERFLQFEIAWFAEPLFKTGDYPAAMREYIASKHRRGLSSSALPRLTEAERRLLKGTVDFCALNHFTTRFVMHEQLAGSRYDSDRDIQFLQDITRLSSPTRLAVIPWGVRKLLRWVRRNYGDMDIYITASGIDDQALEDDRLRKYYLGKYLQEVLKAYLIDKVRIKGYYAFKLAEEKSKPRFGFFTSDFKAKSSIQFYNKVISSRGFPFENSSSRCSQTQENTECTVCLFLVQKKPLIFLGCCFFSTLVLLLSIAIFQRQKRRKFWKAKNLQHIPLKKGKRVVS
3T3-L1 adipocytes, sequence (Q99N32 whole entry): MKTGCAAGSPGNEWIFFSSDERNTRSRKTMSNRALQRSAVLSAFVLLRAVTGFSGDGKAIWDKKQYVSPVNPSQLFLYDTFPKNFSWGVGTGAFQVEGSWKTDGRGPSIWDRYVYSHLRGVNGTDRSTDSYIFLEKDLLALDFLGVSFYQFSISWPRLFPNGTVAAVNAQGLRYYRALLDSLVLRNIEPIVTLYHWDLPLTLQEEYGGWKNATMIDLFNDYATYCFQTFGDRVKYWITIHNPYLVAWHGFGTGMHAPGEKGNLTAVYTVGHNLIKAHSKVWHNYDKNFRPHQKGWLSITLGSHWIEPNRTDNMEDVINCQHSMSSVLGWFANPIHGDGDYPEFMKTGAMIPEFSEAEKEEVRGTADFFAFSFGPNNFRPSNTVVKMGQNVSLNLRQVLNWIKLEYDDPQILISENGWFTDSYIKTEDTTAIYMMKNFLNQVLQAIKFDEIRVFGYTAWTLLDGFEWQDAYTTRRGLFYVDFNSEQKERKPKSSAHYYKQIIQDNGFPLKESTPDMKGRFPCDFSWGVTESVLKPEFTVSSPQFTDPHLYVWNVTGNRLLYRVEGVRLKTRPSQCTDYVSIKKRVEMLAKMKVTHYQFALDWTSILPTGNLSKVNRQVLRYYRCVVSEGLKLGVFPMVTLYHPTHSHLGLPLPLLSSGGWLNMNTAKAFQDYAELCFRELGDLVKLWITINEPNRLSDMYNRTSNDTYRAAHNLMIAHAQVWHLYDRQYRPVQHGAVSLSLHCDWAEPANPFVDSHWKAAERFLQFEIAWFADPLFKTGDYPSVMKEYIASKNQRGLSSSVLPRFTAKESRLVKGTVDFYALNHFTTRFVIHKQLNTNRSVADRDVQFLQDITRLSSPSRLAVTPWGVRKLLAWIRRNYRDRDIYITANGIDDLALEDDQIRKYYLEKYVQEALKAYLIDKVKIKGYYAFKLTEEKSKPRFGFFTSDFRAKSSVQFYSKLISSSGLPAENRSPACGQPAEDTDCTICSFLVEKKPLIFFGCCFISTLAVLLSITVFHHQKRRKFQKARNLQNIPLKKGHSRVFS
3T3-L1 adipocytes, sequence (P16092 22-822): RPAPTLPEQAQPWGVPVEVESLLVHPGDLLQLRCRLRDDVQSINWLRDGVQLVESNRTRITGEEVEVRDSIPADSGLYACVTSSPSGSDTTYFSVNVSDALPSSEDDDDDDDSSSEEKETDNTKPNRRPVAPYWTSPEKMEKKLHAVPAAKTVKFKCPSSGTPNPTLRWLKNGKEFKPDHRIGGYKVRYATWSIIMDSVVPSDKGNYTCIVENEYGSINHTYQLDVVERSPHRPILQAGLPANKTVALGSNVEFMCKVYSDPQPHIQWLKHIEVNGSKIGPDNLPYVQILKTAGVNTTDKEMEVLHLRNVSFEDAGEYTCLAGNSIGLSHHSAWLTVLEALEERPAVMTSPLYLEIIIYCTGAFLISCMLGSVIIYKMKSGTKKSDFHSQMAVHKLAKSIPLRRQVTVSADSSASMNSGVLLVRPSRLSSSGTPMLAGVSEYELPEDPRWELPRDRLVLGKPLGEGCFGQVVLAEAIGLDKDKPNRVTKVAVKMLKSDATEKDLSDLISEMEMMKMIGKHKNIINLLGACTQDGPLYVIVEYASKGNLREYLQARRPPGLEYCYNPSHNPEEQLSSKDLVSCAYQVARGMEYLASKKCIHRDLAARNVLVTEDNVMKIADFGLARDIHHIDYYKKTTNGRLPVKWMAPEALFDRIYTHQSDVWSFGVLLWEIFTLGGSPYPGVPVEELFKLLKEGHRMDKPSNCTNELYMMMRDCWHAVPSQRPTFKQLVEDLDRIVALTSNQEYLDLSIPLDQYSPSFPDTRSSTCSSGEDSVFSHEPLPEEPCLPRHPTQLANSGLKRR

B1: S{Beta-178}-2-aminoethylsulfanyl-Ala[Gln121, Leu168, Cys178]FGF21 (protein)
chain: AHPIPDSSPLLQFGGQVRQRYLYTDDAQQTEAHLEIREDGTVGGAADQSPESLLQLKALKPGVIQILGVKTSRFLCQRPDGALYGSLHFDPEACSFRELLLEDGYNVYQSEAHGLPLHLPGQKSPHRDPAPRGPARFLPLPGLPPALPEPPGILAPQPPDVGSSDPLSLVGPSQGRSPCYAS
modifications: N-terminal Ala; cysteamine disulfide on Cys178
- EC50 ([1]; absence of HSA, read-out: EC50): 105 nM
- EC50 [2]: 50 nM
- Glucose uptake Emax [2]: 69%

B2: S{Beta-176}-2-aminoethylsulfanyl-Ala[Gln121, Leu168, Cys176]FGF21 (protein)
chain: AHPIPDSSPLLQFGGQVRQRYLYTDDAQQTEAHLEIREDGTVGGAADQSPESLLQLKALKPGVIQILGVKTSRFLCQRPDGALYGSLHFDPEACSFRELLLEDGYNVYQSEAHGLPLHLPGQKSPHRDPAPRGPARFLPLPGLPPALPEPPGILAPQPPDVGSSDPLSLVGPSQGRCPSYAS
modifications: cysteamine-protected Cys176
- EC50 ([1]; absence of HSA, read-out: EC50): 227 nM
- EC50 [2]: 73 nM
- Glucose uptake Emax [2]: 84%

B3: S{Beta-179}-2-aminoethylsulfanyl-Ala[Gln121, Leu168, Cys179]FGF21 (protein)
chain: AHPIPDSSPLLQFGGQVRQRYLYTDDAQQTEAHLEIREDGTVGGAADQSPESLLQLKALKPGVIQILGVKTSRFLCQRPDGALYGSLHFDPEACSFRELLLEDGYNVYQSEAHGLPLHLPGQKSPHRDPAPRGPARFLPLPGLPPALPEPPGILAPQPPDVGSSDPLSLVGPSQGRSPSCAS
modifications: N-terminal Ala; cysteamine disulfide on Cys179
- EC50 ([1]; absence of HSA, read-out: EC50): 69 nM
- EC50 [2]: 25 nM
- Glucose uptake Emax [2]: 77%

B4: S{Beta-181}-[2-[2-[[2-[2-[2-[[2-[2-[2-[[(4S)-4-carboxy-4-(17-carboxyheptadecanoyl-amino)butanoyl]amino]ethoxy]ethoxy]acetyl]amino]ethoxy]ethoxy]acetyl]amino]-ethylamino]-2-oxoethyl]-Met[Cys181]FGF21 (protein)
chain: MHPIPDSSPLLQFGGQVRQRYLYTDDAQQTEAHLEIREDGTVGGAADQSPESLLQLKALKPGVIQILGVKTSRFLCQRPDGALYGSLHFDPEACSFRELLLEDGYNVYQSEAHGLPLHLPGNKSPHRDPAPRGPARFLPLPGLPPALPEPPGILAPQPPDVGSSDPLSMVGPSQGRSPSYAC
- Half-life mice [3]: 12 h

B5: S{Beta-180}-2-aminoethylsulfanyl-Ala[Gln121, Leu168, Cys180, des181]FGF21 (protein)
chain: AHPIPDSSPLLQFGGQVRQRYLYTDDAQQTEAHLEIREDGTVGGAADQSPESLLQLKALKPGVIQILGVKTSRFLCQRPDGALYGSLHFDPEACSFRELLLEDGYNVYQSEAHGLPLHLPGQKSPHRDPAPRGPARFLPLPGLPPALPEPPGILAPQPPDVGSSDPLSLVGPSQGRSPSYC
modifications: N-terminal Ala; cysteamine disulfide on Cys180
- EC50 ([1]; absence of HSA, read-out: EC50): 20 nM
- EC50 [2]: 73 nM
- Glucose uptake Emax [2]: 72%

B6: S{Beta-180}-[2-[2-[[2-[2-[2-[[2-[2-[2-[[(4S)-4-carboxy-4-(17-carboxyheptadecanoyl-amino)butanoyl]amino]ethoxy]ethoxy]acetyl]amino]ethoxy]ethoxy]acetyl]amino]-ethylamino]-2-oxoethyl]-Ala[Gln121,Leu168, … (protein)
chain: HPIPDSSPLLQFGGQVRQRYLYTDDAQQTEAHLEIREDGTVGGAADQSPESLLQLKALKPGVIQILGVKTSRFLCQRPDGALYGSLHFDPEACSFRELLLEDGYNVYQSEAHGLPLHLPGQKSPHRDPAPRGPARFLPLPGLPPALPEPPGILAPQPPDVGSSDPLSLVGPSQGRSPSYC
- EC50 ([1]; absence of HSA, read-out: EC50): 8 nM
- EC50 [1, 4]: 20 nM
- EC50 [2]: 8 nM
- Glucose uptake Emax [2]: 71%

B7: S{Beta-179}-[2-[2-[[2-[2-[2-[[2-[2-[2-[[(4S)-4-carboxy-4-(15-carboxypentadecanoyl-amino)butanoyl]amino]ethoxy]ethoxy]acetyl]amino]ethoxy]ethoxy]acetyl]amino]-ethylamino]-2-oxoethyl]-Ala[Gln121,Leu168, … (protein)
chain: HPIPDSSPLLQFGGQVRQRYLYTDDAQQTEAHLEIREDGTVGGAADQSPESLLQLKALKPGVIQILGVKTSRFLCQRPDGALYGSLHFDPEACSFRELLLEDGYNVYQSEAHGLPLHLPGQKSPHRDPAPRGPARFLPLPGLPPALPEPPGILAPQPPDVGSSDPLSLVGPSQGRSPSCAS
- EC50 ([1]; absence of HSA, read-out: EC50): 107 nM
- EC50 [1, 4]: 134 nM
- EC50 [2]: 107 nM
- Glucose uptake Emax [2]: 54%

B8: S{Beta-180}-[2-[2-[[2-[2-[2-[[2-[2-[2-[[(4S)-4-carboxy-4-(19-carboxynonadecanoyl-amino)butanoyl]amino]ethoxy]ethoxy]acetyl]amino]ethoxy]ethoxy]acetyl]amino]-ethylamino]-2-oxoethyl]-Ala[Gln121,Leu168,C … (protein)
chain: HPIPDSSPLLQFGGQVRQRYLYTDDAQQTEAHLEIREDGTVGGAADQSPESLLQLKALKPGVIQILGVKTSRFLCQRPDGALYGSLHFDPEACSFRELLLEDGYNVYQSEAHGLPLHLPGQKSPHRDPAPRGPARFLPLPGLPPALPEPPGILAPQPPDVGSSDPLSLVGPSQGRSPSYCS
- EC50 ([1]; absence of HSA, read-out: EC50): 5 nM
- EC50 [1, 4]: 133 nM
- EC50 [2]: 24 nM
- Glucose uptake Emax [2]: 53%

B9: S{Beta-181}-[2-[2-[[2-[2-[2-[[2-[2-[2-[[(4S)-4-carboxy-4-(19-carboxynonadecanoyl-amino)butanoyl]amino]ethoxy]ethoxy]acetyl]amino]ethoxy]ethoxy]acetyl]amino]-ethylamino]-2-oxoethyl]-Ala[Gln121,Leu168,C … (protein)
chain: HPIPDSSPLLQFGGQVRQRYLYTDDAQQTEAHLEIREDGTVGGAADQSPESLLQLKALKPGVIQILGVKTSRFLCQRPDGALYGSLHFDPEACSFRELLLEDGYNVYQSEAHGLPLHLPGQKSPHRDPAPRGPARFLPLPGLPPALPEPPGILAPQPPDVGSSDPLSLVGPSQGRSPSYAC
- Half-life mice [3]: 19 h
- EC50 ([1]; absence of HSA, read-out: EC50): 58 nM
- EC50 [1, 4]: 434 nM
- EC50 [2]: 410 nM
- Glucose uptake Emax [2]: 57%
